Here are results for three molecules from US20120094923A1 (published 2012).

Experiment [1] deals with T1, BPTI-K15R/R17G (bovine, UniProt P00974 36-93). Description: co-crystal structure, PDB 3P92.
The target in experiment [2] is T2, BPTI-K15R/R17D (bovine, UniProt P00974 36-93). Put plainly: co-crystal structure, PDB 3P95. The protocol: The heterodimeric complexes were further purified by HiLoad Superdex 75 gel filtration chromatography (GE Healthcare), exchanged into 10 mM Na acetate, pH 6.5, and concentrated to ˜3 mg/mL. […] Drops (4 μL) were prepared by mixing equal volumes of protein and reservoir solutions.

A further experiment concerns the target BPTI-K15R (bovine, UniProt P00974 36-93). Put plainly: 1/Ki from competitive inhibition.
Experiment [3] addresses T1, BPTI-K15R/R17G. Description: 1/Ki from competitive inhibition.
The target of experiment [4] is bovine pancreatic trypsin inhibitor, wild type (bovine, UniProt P00974 36-93). Put plainly: 1/Ki from competitive inhibition.
The target of experiment [5] is T2, BPTI-K15R/R17D. Put plainly: 1/Ki from competitive inhibition.
In a further experiment the target is BPTI-R17M (bovine, UniProt P00974 36-93). Put plainly: 1/Ki from competitive inhibition.
Another experiment concerns the target BPTI-K15R/R17M (bovine, UniProt P00974 36-93). Put plainly: 1/Ki from competitive inhibition.
Experiment [6] deals with T1, BPTI-K15R/R17G. Description: slow tight-binding inhibition kinetics.
Description: Reactions were run at 25° C., and were followed spectroscopically for 16 hours so that reliable steady-state rates could be obtained.

Numbering of substitutions follows the chain as printed. Numbers in names are those of the source.

B1: catalytically inactive mesotrypsin-S195A (enzyme)
chain: IVGGYTCEENSLPYQVSLNSGSHFCGGSLISEQWVVSAAHCYKTRIQVRLGEHNIKVLEGNEQFINAAKIIRHPKYNRDTLDNDIMLIKLSSPAVINARVSTISLPTAPPAAGTECLISGWGNTLSFGADYPDELKCLDAPVLTQAECKASYPGKITNSMFCVGFLEGGKDSCQRDAGGPVVCNGQLQGVVSWGHGCAWKNRPGVYTKVYNYVDWIKDTIAANS
notes: Used for the co-crystal structures; also called S195A mutant
On to B1, for which the binding result in the experiment with BPTI-K15R/R17G [1] and in the experiment with BPTI-K15R/R17D [2] was “binds” throughout.

B2: recombinant human mesotrypsin (enzyme)
chain: B1 chain with A177S
notes: also called PRSS3
For the molecule B2, the Ka with BPTI-K15R is 417000 M⁻¹; with BPTI-K15R/R17G [3], 9.3e+07 M⁻¹; in [4] it was 74100 M⁻¹; with BPTI-K15R/R17D [5], 667000 M⁻¹; in the experiment with BPTI-R17M it was 1.32e+06 M⁻¹; with BPTI-K15R/R17M, 4.76e+06 M⁻¹.

B3: recombinant human anionic trypsin (enzyme, UniProt P07478 24-247, looked up)
chain: IVGGYICEENSVPYQVSLNSGYHFCGGSLISEQWVVSAGHCYKSRIQVRLGEHNIEVLEGNEQFINAAKIIRHPKYNSRTLDNDILLIKLSSPAVINSRVSAISLPTAPPAAGTESLISGWGNTLSSGADYPDELQCLDAPVLSQAECEASYPGKITNNMFCVGFLEGGKDSCQGDSGGPVVSNGELQGIVSWGYGCAQKNRPGVYTKVYNYVDWIKDTIAANS
notes: mature
As for B3, the binding result with BPTI-K15R/R17G [6] was “binds”.
